# Measured values reported in patent US20140274782A1, “AFFINITY REAGENTS AND METHODS FOR DETECTION, PURIFICATION, AND PROTEOMIC ANALYSIS OF METHYLATED PROTEINS” (The Board of Trustees of the Leland Stanford Junior …, priority 2013, published 2014).
# T1: G9a and GLP (Homo sapiens, UniProt Q96KQ7+Q9H9B1)
# T1 sequence (Q96KQ7 2-1210 limits assumed): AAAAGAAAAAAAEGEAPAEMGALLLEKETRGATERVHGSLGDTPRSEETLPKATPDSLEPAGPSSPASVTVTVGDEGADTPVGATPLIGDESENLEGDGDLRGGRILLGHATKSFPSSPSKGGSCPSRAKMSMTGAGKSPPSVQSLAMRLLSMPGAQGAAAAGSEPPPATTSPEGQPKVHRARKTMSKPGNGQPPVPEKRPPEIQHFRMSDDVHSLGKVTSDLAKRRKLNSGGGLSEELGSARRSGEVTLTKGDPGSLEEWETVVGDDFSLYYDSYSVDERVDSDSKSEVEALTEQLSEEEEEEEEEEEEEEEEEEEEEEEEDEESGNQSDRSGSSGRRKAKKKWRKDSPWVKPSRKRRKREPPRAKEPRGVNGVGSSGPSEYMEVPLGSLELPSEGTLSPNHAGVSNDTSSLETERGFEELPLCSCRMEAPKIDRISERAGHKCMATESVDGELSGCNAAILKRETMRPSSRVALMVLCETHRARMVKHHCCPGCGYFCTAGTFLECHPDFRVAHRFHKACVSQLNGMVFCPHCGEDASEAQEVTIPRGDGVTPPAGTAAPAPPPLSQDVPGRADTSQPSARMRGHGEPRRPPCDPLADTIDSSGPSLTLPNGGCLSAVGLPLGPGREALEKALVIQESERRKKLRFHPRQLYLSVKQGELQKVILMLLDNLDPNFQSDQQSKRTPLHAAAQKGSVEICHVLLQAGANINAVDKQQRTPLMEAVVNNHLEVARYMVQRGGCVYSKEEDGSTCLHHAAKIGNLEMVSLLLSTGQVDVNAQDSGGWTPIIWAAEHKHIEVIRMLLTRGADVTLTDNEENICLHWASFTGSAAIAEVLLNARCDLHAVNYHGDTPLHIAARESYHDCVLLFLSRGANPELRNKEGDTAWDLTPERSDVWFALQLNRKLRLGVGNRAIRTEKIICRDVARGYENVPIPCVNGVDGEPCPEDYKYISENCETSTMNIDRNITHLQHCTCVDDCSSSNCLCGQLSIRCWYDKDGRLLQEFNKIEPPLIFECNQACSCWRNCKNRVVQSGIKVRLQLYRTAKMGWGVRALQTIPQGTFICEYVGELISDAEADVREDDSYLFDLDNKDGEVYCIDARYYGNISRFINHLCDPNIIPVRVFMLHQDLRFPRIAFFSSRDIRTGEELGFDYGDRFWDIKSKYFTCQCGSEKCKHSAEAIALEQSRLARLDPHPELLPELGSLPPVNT
# T1 sequence (Q9H9B1 2-1298 limits assumed): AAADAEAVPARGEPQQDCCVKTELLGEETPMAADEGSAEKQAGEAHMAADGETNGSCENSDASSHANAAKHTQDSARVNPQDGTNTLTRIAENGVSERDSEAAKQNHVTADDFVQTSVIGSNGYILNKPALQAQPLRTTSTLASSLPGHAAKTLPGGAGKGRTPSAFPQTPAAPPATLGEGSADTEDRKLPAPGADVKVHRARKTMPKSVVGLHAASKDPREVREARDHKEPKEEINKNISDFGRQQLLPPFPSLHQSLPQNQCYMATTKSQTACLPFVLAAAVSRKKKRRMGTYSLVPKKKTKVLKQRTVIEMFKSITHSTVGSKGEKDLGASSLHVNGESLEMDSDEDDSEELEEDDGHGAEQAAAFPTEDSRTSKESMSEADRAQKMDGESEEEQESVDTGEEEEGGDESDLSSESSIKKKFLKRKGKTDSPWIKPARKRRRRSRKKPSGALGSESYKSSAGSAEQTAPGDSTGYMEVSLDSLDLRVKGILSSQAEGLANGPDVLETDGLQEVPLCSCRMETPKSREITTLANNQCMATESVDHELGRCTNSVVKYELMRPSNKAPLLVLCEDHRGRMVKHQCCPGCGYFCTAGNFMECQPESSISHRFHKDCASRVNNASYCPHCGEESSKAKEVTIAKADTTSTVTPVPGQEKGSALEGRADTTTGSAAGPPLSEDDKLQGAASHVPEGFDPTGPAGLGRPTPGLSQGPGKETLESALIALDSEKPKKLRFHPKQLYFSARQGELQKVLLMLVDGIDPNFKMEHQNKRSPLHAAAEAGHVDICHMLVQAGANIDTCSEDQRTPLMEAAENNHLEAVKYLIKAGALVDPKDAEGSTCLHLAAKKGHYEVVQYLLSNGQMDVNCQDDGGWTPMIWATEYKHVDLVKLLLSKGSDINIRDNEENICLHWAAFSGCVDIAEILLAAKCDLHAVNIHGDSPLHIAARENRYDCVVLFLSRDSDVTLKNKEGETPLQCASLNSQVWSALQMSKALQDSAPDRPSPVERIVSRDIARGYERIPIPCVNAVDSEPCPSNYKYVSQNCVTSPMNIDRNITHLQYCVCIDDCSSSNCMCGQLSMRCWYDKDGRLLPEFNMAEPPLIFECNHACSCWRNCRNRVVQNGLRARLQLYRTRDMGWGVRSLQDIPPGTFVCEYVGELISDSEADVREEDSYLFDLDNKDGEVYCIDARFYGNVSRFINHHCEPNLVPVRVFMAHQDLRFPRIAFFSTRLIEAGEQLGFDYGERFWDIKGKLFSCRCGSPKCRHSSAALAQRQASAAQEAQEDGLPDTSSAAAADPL
# B1: MAP4 (protein, UniProt P27816 2-1152, looked up)
# Microtubule-associated …: ADLSLADALTEPSPDIEGEIKRDFIATLEAEAFDDVVGETVGKTDYIPLLDVDEKTGNSESKKKPCSETSQIEDTPSSKPTLLANGGHGVEGSDTTGSPTEFLEEKMAYQEYPNSQNWPEDTNFCFQPEQVVDPIQTDPFKMYHDDDLADLVFPSSATADTSIFAGQNDPLKDSYGMSPCNTAVVPQGWSVEALNSPHSESFVSPEAVAEPPQPTAVPLELAKEIEMASEERPPAQALEIMMGLKTTDMAPSKETEMALAKDMALATKTEVALAKDMESPTKLDVTLAKDMQPSMESDMALVKDMELPTEKEVALVKDVRWPTETDVSSAKNVVLPTETEVAPAKDVTLLKETERASPIKMDLAPSKDMGPPKENKKETERASPIKMDLAPSKDMGPPKENKIVPAKDLVLLSEIEVAQANDIISSTEISSAEKVALSSETEVALARDMTLPPETNVILTKDKALPLEAEVAPVKDMAQLPETEIAPAKDVAPSTVKEVGLLKDMSPLSETEMALGKDVTPPPETEVVLIKNVCLPPEMEVALTEDQVPALKTEAPLAKDGVLTLANNVTPAKDVPPLSETEATPVPIKDMEIAQTQKGISEDSHLESLQDVGQSAAPTFMISPETVTGTGKKCSLPAEEDSVLEKLGERKPCNSQPSELSSETSGIARPEEGRPVVSGTGNDITTPPNKELPPSPEKKTKPLATTQPAKTSTSKAKTQPTSLPKQPAPTTIGGLNKKPMSLASGLVPAAPPKRPAVASARPSILPSKDVKPKPIADAKAPEKRASPSKPASAPASRSGSKSTQTVAKTTTAAAVASTGPSSRSPSTLLPKKPTAIKTEGKPAEVKKMTAKSVPADLSRPKSTSTSSMKKTTTLSGTAPAAGVVPSRVKATPMPSRPSTTPFIDKKPTSAKPSSTTPRLSRLATNTSAPDLKNVRSKVGSTENIKHQPGGGRAKVEKKTEAAATTRKPESNAVTKTAGPIASAQKQPAGKVQIVSKKVSYSHIQSKCGSKDNIKHVPGGGNVQIQNKKVDISKVSSKCGSKANIKHKPGGGDVKIESQKLNFKEKAQAKVGSLDNVGHLPAGGAVKTEGGGSEAPLCPGPPAGEEPAISEAAPEAGAPTSASGLNGHPTLSGGGDQREAQTLDSQIQETSI
# B2: SNRNP40 (protein, UniProt Q96DI7 1-357, looked up)
# U5 small nuclear …: MIEQQKRKGPELPLVPVKRQRHELLLGAGSGPGAGQQQATPGALLQAGPPRCSSLQAPIMLLSGHEGEVYCCKFHPNGSTLASAGFDRLILLWNVYGDCDNYATLKGHSGAVMELHYNTDGSMLFSASTDKTVAVWDSETGERVKRLKGHTSFVNSCYPARRGPQLVCTGSDDGTVKLWDIRKKAAIQTFQNTYQVLAVTFNDTSDQIISGGIDNDIKVWDLRQNKLTYTMRGHADSVTGLSLSSEGSYLLSNAMDNTVRVWDVRPFAPKERCVKIFQGNVHNFEKNLLRCSWSPDGSKIAAGSADRFVYVWDTTSRRILYKLPGHAGSINEVAFHPDEPIIISASSDKRLYMGEIQ
# B3: UBAP2L (protein, UniProt Q14157 1-1087, looked up)
# Ubiquitin-associated protein …: MMTSVGTNRARGNWEQPQNQNQTQHKQRPQATAEQIRLAQMISDHNDADFEEKVKQLIDITGKNQDECVIALHDCNGDVNRAINVLLEGNPDTHSWEMVGKKKGVSGQKDGGQTESNEEGKENRDRDRDYSRRRGGPPRRGRGASRGREFRGQENGLDGTKSGGPSGRGTERGRRGRGRGRGGSGRRGGRFSAQGMGTFNPADYAEPANTDDNYGNSSGNTWNNTGHFEPDDGTSAWRTATEEWGTEDWNEDLSETKIFTASNVSSVPLPAENVTITAGQRIDLAVLLGKTPSTMENDSSNLDPSQAPSLAQPLVFSNSKQTAISQPASGNTFSHHSMVSMLGKGFGDVGEAKGGSTTGSQFLEQFKTAQALAQLAAQHSQSGSTTTSSWDMGSTTQSPSLVQYDLKNPSDSAVHSPFTKRQAFTPSSTMMEVFLQEKSPAVATSTAAPPPPSSPLPSKSTSAPQMSPGSSDNQSSSPQPAQQKLKQQKKKASLTSKIPALAVEMPGSADISGLNLQFGALQFGSEPVLSDYESTPTTSASSSQAPSSLYTSTASESSSTISSNQSQESGYQSGPIQSTTYTSQNNAQGPLYEQRSTQTRRYPSSISSSPQKDLTQAKNGFSSVQATQLQTTQSVEGATGSAVKSDSPSTSSIPPLNETVSAASLLTTTNQHSSSLGGLSHSEEIPNTTTTQHSSTLSTQQNTLSSSTSSGRTSTSTLLHTSVESEANLHSSSSTFSTTSSTVSAPPPVVSVSSSLNSGSSLGLSLGSNSTVTASTRSSVATTSGKAPPNLPPGVPPLLPNPYIMAPGLLHAYPPQVYGYDDLQMLQTRFPLDYYSIPFPTPTTPLTGRDGSLASNPYSGDLTKFGRGDASSPAPATTLAQPQQNQTQTHHTTQQTFLNPALPPGYSYTSLPYYTGVPGLPSTFQYGPAVFPVAPTSSKQHGVNVSVNASATPFQQPSGYGSHGYNTGVSVTSSNTGVPDISGSVYSKTQQSFEKQGFHSGTPAASFNLPSALGSGGPINPATAAAYPPAPFMHILTPHQQPHSQILHHHLQQDGQTGSGQRSQTSSIPQKPQTNKSAYNSYSWGAN
# B4: UBXN1 (protein, UniProt Q04323 2-297, looked up)
# UBX domain-containing protein …: AELTALESLIEMGFPRGRAEKALALTGNQGIEAAMDWLMEHEDDPDVDEPLETPLGHILGREPTSSEQGGLEGSGSAAGEGKPALSEEERQEQTKRMLELVAQKQREREEREEREALERERQRRRQGQELSAARQRLQEDEMRRAAEERRREKAEELAARQRVREKIERDKAERAKKYGGSVGSQPPPVAPEPGPVPSSPSQEPPTKREYDQCRIQVRLPDGTSLTQTFRAREQLAAVRLYVELHRGEELGGGQDPVQLLSGFPRRAFSEADMERPLQELGLVPSAVLIVAKKCPS
# Target: T1, G9a and GLP
# Assay: Triple SILAC pull-down after UNC0638 treatment of 293T cells, DMSO/UNC0638 ratio of protein captured by 3×MBT;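 note: mass spectrometry (Q-Exactive) SILAC quantitation, DMSO/UNC0638 ratio computed after subtracting 3×MBTD355N mutant pull-down background, only proteins with at least twofold 3×MBT over mutant signal considered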
# Type: cell-based
# Set-up: endogenous in cells; host or cells: HEK 293T
# Conditions: SILAC ratio DMSO relative to UNC0638, pull-down with 3xMBT; UNC0638 in heavy SILAC media; all values in log base 2
row,Relative to UNC0638 UNC Heavy,Molecule
1,0.13 log base 2,B1
2,0.27 log base 2,B2
3,0.22 log base 2,B3
4,0.12 log base 2,B4

# Same assay, conditions: SILAC ratio DMSO relative to UNC0638, pull-down with 3xMBT; UNC0638 in light SILAC media; all values in log base 2
row,Relative to UNC0638 UNC Light,Molecule
1,0.03 log base 2,B1
2,−0.12 log base 2,B2
3,−0.06 log base 2,B3
4,0.04 log base 2,B4

# Same assay, conditions: average of UNC Light and UNC Heavy experiments; all values in log base 2
row,Relative to UNC0638 Average,Molecule
1,0.08 log base 2,B1
2,0.07 log base 2,B2
3,0.08 log base 2,B3
4,0.08 log base 2,B4

# System: 3×MBT domain of L3MBTL1
# Assay: Triple SILAC pull-down, 3xMBT/3xMBTD355N ratio (cytoplasmic, nuclear and chromatin fractions of 293T cells);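 note: proteins quantified with MaxQuant, requiring at least two unique peptides and quantification in both label directions, normalized to the mean of proteins from a digested loading control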
# Type: binding, human
# Conditions: SILAC ratio 3xMBT vs 3xMBTD355N pull-down, 293T cells; experiment with UNC0638 in heavy SILAC media; all values in log base 2
# Procedure: For stable isotope labeling by amino acids in cell culture (SILAC) experiments HEK 293T cells were grown for at least six doublings in DMEM for SILAC supplemented with 10% dialyzed fetal bovine serum (FBS), 230 mg/L L-proline and either 100 mg/L each of L-lysine and L-arginine (“light” medium), D4-L-lysine and ^13C6-L-arginine (“medium” media), or ^13C6^15N2-L-lysine and ^13C6^15N4-L-arginine (Thermo Scientific). Heavy methyl labeling used DMEM without L-Methionine or L-Cysteine supplemented with D3^13C-L-Methionine (Sigma), L-Cysteine (Sigma) and 10% dialyzed FBS.
# For UNC0638 treatments cells were treated for 24 hours with UNC0638 at 2.5 μM or DMSO vehicle control. One experiment treated cells in light media with UNC0638, the other treated cells in heavy media. Both experiments included cells in medium media treated with DMSO for negative control pull-down with 3×MBTD355N.
# UNC0638 treatment experiments used a Q-Exactive mass spectrometer (ThermoFisher Scientific). A 25 cm HPLC column with 3 μm Reliasil (Orochem) was used to separate peptides over a 4 hour gradient from 0 to 75% acetonitrile. Ions were generated using a custom nanospray source flowing at 250 nL/minute. Mass spectrometry settings were 70,000 MS1 resolution, data dependent selection of up to 20 precursor ions per cycle, dynamic exclusion of 30 seconds and isolation window of 2 m/z. The nuclear fraction from the experiment using UNC0638 on cells in heavy media was additionally analyzed by 2D HPLC-MS/MS as described earlier.
# Peptides were identified and quantified using MaxQuant version 1.2.2.5 (Cox and Mann, supra) with the following changes to default settings: mono- and di-methylation of lysine, and oxidation of methionine, and N-terminal acetylation as variable modifications, disabled “I=L”, up to three modifications per peptide, one missed cleavage, maximum charge of 5. Protein and peptide FDR were set to 1%, and proteins were filtered post-hoc for at least two unique peptides. Proteins were excluded from an experiment if they were not quantified in both labeling directions. Because FDR is unreliable for small numbers of peptides the modification site FDR was set to 10% and all methylated peptides were manually verified. […] Quantitative protein data was normalized to the mean value among proteins identified by analyzing 50 ng of digested loading control.
# For UNC0638 experiments the treated vs. untreated ratio was determined by subtracting the value from 3×MBTD355N prior to dividing values from the light and heavy channels. Only proteins showing a two-fold signal to background ratio (3×MBT/3×MBTD355N) were evaluated as potential G9a/GLP substrates.
row,Molecule,3xMBT/D355N UNC Heavy
1,B1,1.41 log base 2
2,B2,2.39 log base 2
3,B3,2.82 log base 2
4,B4,0.62 log base 2

# Same assay, conditions: SILAC ratio 3xMBT vs 3xMBTD355N pull-down, 293T cells; experiment with UNC0638 in light SILAC media; all values in log base 2
row,Molecule,3xMBT/D355N UNC Light
1,B1,2.75 log base 2
2,B2,2.64 log base 2
3,B3,1.83 log base 2
4,B4,1.91 log base 2
